Source: patent US20250090676A1 (SUTRO BIOPHARMA, published 2025)
Residue numbers refer to the chain shown, from its start.

B1: SRP1848-A10 (antibody, V domains shown)
VH: EVQLVESGGGLVQPGGSLRLSCAASGFNIRKYSIHWARQAPGKGLEWVGDIFPIDDITDYADSVKGRFTISADTSKNTAYLQMNSLRAEDTAVYYCARGSWSWPSGHSYYLDYWGQGTLVTVSS
VL: not shown
notes: HC variant paired with trastuzumab LC, cell-free expressed, HIS- and FLAG-tagged; also called Antibody 8
B2: SRP1848-C04 (antibody, V domains shown)
VH: EVQLVESGGGLVQPGGSLRLSCAASGFNIRHYSIHWVRQAPGKGLEWVGEIYPGPGNTDYADSVKGRFTISADTSKNTAYLQMNSLRAEDTAVYYCARGSLSWRAGYGYYLDYWGQGTLVTVSS
VL: not shown
notes: HC variant paired with trastuzumab LC, cell-free expressed, HIS- and FLAG-tagged; also called Antibody 20
B3: SRP1848-B10 (antibody, V domains shown)
VH: EVQLVESGGGLVQPGGSLRLSCAASGFNTTTKSIHWVRQAPGKGLEWVGEIYPRDGITDYADSVKGRFTISADTSKNTAYLQMNSLRAEDTAVYYCARGGWHWRSGYSYYLDYWGQGTLVTVSS
VL: not shown
notes: HC variant paired with trastuzumab LC, cell-free expressed, HIS- and FLAG-tagged; also called Antibody 16
B4: SRP1848-C07 (antibody, V domains shown)
VH: B1 VH with A37V, D56G, V64M, S105A, H107Y, S108G, L111Q
VL: not shown
notes: HC variant paired with trastuzumab LC, cell-free expressed, HIS- and FLAG-tagged; also called Antibody 22
B5: SRP1848-B11 (antibody, V domains shown)
VH: B2 VH with R30G, H31N, Y32N, E50D, Y52S, G54I, P55D, N57F, L101W
VL: not shown
notes: HC variant paired with trastuzumab LC, cell-free expressed, HIS- and FLAG-tagged; also called Antibody 17
B6: SRP1848-D04 (antibody, V domains shown)
VH: B3 VH with T29I, T30S, T31H, K32Y, R87S, G100Y, H102F, S108G
VL: not shown
notes: HC variant paired with trastuzumab LC, cell-free expressed, HIS- and FLAG-tagged; also called Antibody 26
B7: SRP1848-B07 (antibody, V domains shown)
VH: EVQLVESGGGLVQPGGSLRLSCAASGFNISRFYIHWVRQAPGKGLEWVGGISPYDGFTDYADSVKGRFTISADTSKNTAYLQMNSLRAEDTAVYYCARGSWSWPAGYGYYQDYWGQGTLVTVSS
VL: not shown
notes: HC variant paired with trastuzumab LC, cell-free expressed, HIS- and FLAG-tagged; also called Antibody 14
B8: SRP1848-B03 (antibody, V domains shown)
VH: B7 VH with R31M, F32K, S52T, Y54I, F57M, A105S, G108S, Q111L
VL: not shown
notes: HC variant paired with trastuzumab LC, cell-free expressed, HIS- and FLAG-tagged; also called Antibody 10
B9: SRP1848-D05 (antibody, V domains shown)
VH: B7 VH with R31I, F32S, Y54I, F57Y, P104R, Q111L
VL: not shown
notes: HC variant paired with trastuzumab LC, cell-free expressed, HIS- and FLAG-tagged; also called Antibody 27
B10: SRP1848-B06 (antibody, V domains shown)
VH: B7 VH with R31N, F32Y, S52T, Y54I, F57Y, S100F, A105S
VL: not shown
notes: HC variant paired with trastuzumab LC, cell-free expressed, HIS- and FLAG-tagged; also called Antibody 13
B11: SRP1848-C10 (antibody, V domains shown)
VH: B7 VH with S30R, R31T, F32Y, Y54I, F57Y, Q111L
VL: not shown
notes: HC variant paired with trastuzumab LC, cell-free expressed, HIS- and FLAG-tagged; also called Antibody 23
B12: SRP1848-C05 (antibody, V domains shown)
VH: B1 VH with A37V, D56G, T58N, P104K, S105A, H107Y, S108G
VL: not shown
notes: HC variant paired with trastuzumab LC, cell-free expressed, HIS- and FLAG-tagged; also called Antibody 21
B13: SRP1848-C01 (antibody, V domains shown)
VH: EVQLVESGGGLVQPGGSLRLSCAASGFNIGNSYIHWVRQAPGKGLEWVGGVTPNDGYTDYADSVKGRFTISADTSKNTTYLQMNSLRAEDTAVYYCARGSWFWRAGYGYYLDYWGQGALVTVSS
VL: not shown
notes: HC variant paired with trastuzumab LC, cell-free expressed, HIS- and FLAG-tagged; also called Antibody 18
B14: SRP1848-B09 (antibody, V domains shown)
VH: EVQLVESGGGLVQPGGSLRLSCAAGGFNITNYYIHWVRQAPGKGLEWVGGITPVDGYTDYADRVKGRFTISADTSKNTAYLQMNSLRAEDTAVYYCARGAWSWRSGYGYYMDYWGQGTLVTVSS
VL: not shown
notes: HC variant paired with trastuzumab LC, cell-free expressed, HIS- and FLAG-tagged; also called Antibody 15
B15: SRP1848-B05 (antibody, V domains shown)
VH: B7 VH with R31N, F32Y, Y54I, F57Y, V64M, N84S, S102F, P104Q, A105S, Q111L
VL: not shown
notes: HC variant paired with trastuzumab LC, cell-free expressed, HIS- and FLAG-tagged; also called Antibody 12
B16: SRP1848-B01 (antibody, V domains shown)
VH: B1 VH with K31N, A37V, D50E, F52Y, I54V, D56G, S100F, H107Y, Y110F
VL: not shown
notes: HC variant paired with trastuzumab LC, cell-free expressed, HIS- and FLAG-tagged; also called Antibody 9
B17: SRP1848-B04 (antibody, V domains shown)
VH: B2 VH with G26S, R30S, H31N, Y32H, G54V, P55D, N57I, S100R, L101Y, G108S
VL: not shown
notes: HC variant paired with trastuzumab LC, cell-free expressed, HIS- and FLAG-tagged; also called Antibody 11
B18: SRP1848-C03 (antibody, V domains shown)
VH: B2 VH with R30G, H31V, G54I, P55D, L101W, S102A, A105S, G108S
VL: not shown
notes: HC variant paired with trastuzumab LC, cell-free expressed, HIS- and FLAG-tagged; also called Antibody 19
B19: SRP1848-D02 (antibody, V domains shown)
VH: B14 VH with G25S, T30S, N31H, Y32N, V54Q, R63S, S85R, S105A, M111L
VL: not shown
notes: HC variant paired with trastuzumab LC, cell-free expressed, HIS- and FLAG-tagged; also called Antibody 24

Molecular target: T1, cynomolgus monkey folate receptor alpha (cynomolgus monkey, UniProt P15328 25-234 (human entry))
T1 construct: Expressed on the surface of stably transfected CHO cells; also called cyno FolR1; CHO-cyno FolR1
T1 sequence (P15328 other isoform, or with tags, fused parts or gaps limits assumed): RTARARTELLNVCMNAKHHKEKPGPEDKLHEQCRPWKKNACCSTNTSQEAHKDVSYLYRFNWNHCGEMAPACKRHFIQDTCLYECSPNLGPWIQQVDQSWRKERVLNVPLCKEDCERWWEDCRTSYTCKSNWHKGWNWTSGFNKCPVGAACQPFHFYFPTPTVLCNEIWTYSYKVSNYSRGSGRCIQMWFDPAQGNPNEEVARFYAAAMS
Test: FACS, CHO-cFOLR1 cells
Method: (§1) CHO cells were transfected to stably express human (CHO-hFOLR1), cynomolgus (CHO-cFOLR1), or mouse (CHO-mFOLR1) target molecule FOLR1 on the cell surface. Parental CHO cells were used as a negative control to determine background binding levels. Parental CHO and stably transfected CHO-hFOLR1, CHO-cFOLR1, and CHO-mFOLR1 cells were cultured in Ham's F-12: high glucose DMEM (50:50) (Corning, Cellgro-Mediatech) supplemented with 10% heat-inactivated fetal bovine serum (Corning, Cellgro-Mediatech), 1% Penicillin/Streptomycin (Corning, Cellgro-Mediatech) and 2 mmol/L-glutamax (Life Technology).
(§2) A mixture of fluoresecent-labeled parental CHO cells and unlabeled CHO-hFOLRlcells were prepared as follows. Parental CHO cells were washed twice in PBS and incubated in PBS containing with 1 nM CellTrace™ Oregon Green488® (Life Technologies) at 37° C. for 30 minutes. Labeled parental CHO cells were then washed 2× with Ham's F-12 media and 2× with FACS buffer (PBS with 1% bovine serum albumin). Unlabeled CHO-hFOLR1 cells were similarly washed and prepared. Labeled parental CHO and unlabeled CHO-hFOLR1 cells were combined at 1:1 ratio and seeded at 50 μL per well (200,000 cells per well) in 96 well polypropylene plates. Cells were mixed with 50 μL of test antibodies (i.e., anti-FOLR1 variants) serially diluted in FACS buffer and incubated on ice for 60 mins. […] Data were analyzed using FlowJo® software (FlowJo, LLC; Ashland, OR) to determine mean fluorescence intensities. Binding constants were calculated using the statistical software, GraphPad Prism (GraphPad Software; La Jolla, CA) using the nonlinear regression equation, one site-specific binding with Hill slope. Secondary antibody alone was used as a control, in addition to measuring non-specific antibody binding to CHO parental cells.

Binder | Bmax (MFI) | Kd
B1 | 14800 MFI | 0.47 nM
B2 | 22000 MFI | 0.86 nM
B3 | 21300 MFI | 0.44 nM
B4 | 18100 MFI | 0.23 nM
B5 | 22900 MFI | 0.34 nM
B6 | 25700 MFI | 2.84 nM
B7 | 25500 MFI | 1.05 nM
B8 | 17200 MFI | 0.41 nM
B9 | 22200 MFI | 0.45 nM
B10 | 26800 MFI | 1.21 nM
B11 | 16000 MFI | 0.27 nM
B12 | 15200 MFI | 0.35 nM
B13 | 25900 MFI | 0.6 nM
B14 | 25200 MFI | 0.99 nM
B15 | 21900 MFI | 0.64 nM
B16 | 23900 MFI | 0.83 nM
B17 | 27800 MFI | 0.65 nM
B18 | 25100 MFI | 0.5 nM
B19 | 28000 MFI | 0.61 nM

Molecular target: T2, human folate receptor alpha (hFOLR1) (human, UniProt P15328 25-234)
T2 construct: endogenous on FOLR1-positive KB and Igrov1 cells (cell killing); also called human FolR1; FolRα
T2 sequence (P15328 25-234 limits assumed): as the sequence (P15328 other isoform, or with tags, fused parts or gaps limits assumed) above, with T2I, R4W, K37R, R117Q, P146A, Y171H counted along it
Test: FACS, CHO-hFOLR1 cells;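 further: flow cytometry of serially diluted antibodies binding CHO cells stably expressing the receptor, 60 min on ice, mixed with dye-tagged parental CHO as background control, one-site specific fit with Hill slope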
Method: as §1, §2

Binder | Bmax (MFI) | Kd
B1 | 27100 MFI | 0.66 nM
B2 | 26300 MFI | 0.44 nM
B3 | 28200 MFI | 0.83 nM
B4 | 28800 MFI | 0.62 nM
B5 | 28400 MFI | 0.56 nM
B6 | 29300 MFI | 2.21 nM
B7 | 25600 MFI | 0.66 nM
B8 | 26300 MFI | 0.82 nM
B9 | 26700 MFI | 0.57 nM
B10 | 25100 MFI | 0.67 nM
B11 | 27500 MFI | 0.91 nM
B12 | 26800 MFI | 0.52 nM
B13 | 28500 MFI | 0.66 nM
B14 | 25200 MFI | 0.46 nM
B15 | 24500 MFI | 0.65 nM
B16 | 26600 MFI | 1.06 nM
B17 | 27800 MFI | 0.72 nM
B18 | 29100 MFI | 0.51 nM
B19 | 28800 MFI | 0.6 nM

Molecular target: T3, murine folate receptor alpha (mouse, UniProt P35846 25-232)
T3 construct: Expressed on the surface of stably transfected CHO cells; also called mouse FolR1; CHO-mouse FolR1
T3 sequence (P35846 25-232 limits assumed): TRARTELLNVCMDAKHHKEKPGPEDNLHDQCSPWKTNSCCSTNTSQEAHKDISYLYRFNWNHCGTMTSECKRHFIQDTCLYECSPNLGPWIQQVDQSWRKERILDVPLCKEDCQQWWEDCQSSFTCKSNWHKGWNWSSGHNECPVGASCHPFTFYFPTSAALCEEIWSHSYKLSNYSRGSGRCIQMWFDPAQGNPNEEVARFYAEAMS
Test: FACS, CHO-mFOLR1 cells;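 further: flow cytometry binding of serially diluted test antibodies to transfected CHO cells on ice, mean fluorescence intensity, parental CHO cells give background, Kd from one-site specific binding fit with Hill slope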
Method: as §1, §2

Binder | Bmax (MFI) | Kd | binding result
B1 | 10200 MFI | 1.2 nM | 
B2 | 2510 MFI | 62 nM | 
B3 | 2460 MFI | 7.3 nM | 
B4 | 3170 MFI | 1.4 nM | 
B5 | 1630 MFI | 3.9 nM | 
B6 |  |  | no binding
B7 |  |  | no binding
B8 | 2720 MFI | 6.4 nM | 
B9 | 1360 MFI | 14 nM | 
B10 |  |  | no binding
B11 | 2330 MFI | 5.6 nM | 
B12 | 4130 MFI | 4.8 nM | 
B13 | 1370 MFI | 26 nM | 
B14 | 1420 MFI | 78 nM | 
B15 |  |  | no binding
B16 | 3400 MFI | 16.4 nM | 
B17 | 2190 MFI | 17.9 nM | 
B18 | 3310 MFI | 3 nM | 
B19 | 916 MFI | 87 nM | 

Molecular target: T2, human folate receptor alpha (hFOLR1)
Test: cell-based or functional assay

Binder | Igrov, 2° Antibody Cell Killing, Nb-SC239: EC50 | Igrov, 2° Antibody Cell Killing, Nb-SC239: Span | KB, 2° Antibody Cell Killing, Nb-239: EC50 | KB, 2° Antibody Cell Killing, Nb-239: Span
B1 | 0.027 nM | 75% | 0.033 nM | 96%
B2 | 0.016 nM | 68% | 0.006 nM | 94%
B3 |  | 71% | 0.04 nM | 97%
B4 | 0.013 nM | 67% | 0.065 nM | 93%
B5 | 0.026 nM | 74% | 0.058 nM | 93%
B6 | 0.068 nM | 77% | 0.38 nM | 97%
B7 | 0.038 nM | 73% | 0.079 nM | 96%
B8 | 0.028 nM | 66% | 0.05 nM | 94%
B9 |  | 73% | 0.055 nM | 92%
B10 | 0.022 nM | 72% | 0.058 nM | 95%
B11 | 0.036 nM | 75% | 0.057 nM | 96%
B12 | 0.021 nM | 62% | 0.073 nM | 92%
B13 | 0.023 nM | 68% |  | 90%
B14 | 0.027 nM | 74% | 0.073 nM | 97%
B15 | 0.04 nM | 72% | 0.065 nM | 94%
B16 | 0.031 nM | 82% | 0.064 nM | 95%
B17 | 0.018 nM | 70% | 0.035 nM | 94%
B18 | 0.035 nM | 72% | 0.074 nM | 93%
B19 | 0.027 nM | 71% | 0.034 nM | 93%
